Laboratory results reported in patent US7011940.

Target: ER peptide mimic
Assay: immunostaining of ER peptide mimic spots on a membrane, colour scored 1-4+

Staining intensity (1-4+): 4 1-4+ scale
Substance: 1D5 anti-human estrogen receptor mouse monoclonal antibody
